Measurements as given in patent US12099068B2, “Biomarkers for graft-versus-host disease” (Incyte Corporation, priority 2018, dated 2024).

B1: SOST (protein, UniProt Q9BQB4 24-213, looked up)
Sclerostin: QGWQAFKNDATEIIPELGEYPEPPPELENNKTMNRAENGGRPPHHPFETKDVSEYSCRELHFTRYVTDGPCRSAKPVTELVCSGQCGPARLLPNAIGRGKWWRPSGPDFRCIPDRYRAQRVQLLCPGGEAPRARKVRLVASCKCKRLTRFHNQSELKDFGTEAARPQKGRKPRPRARSAKANQAELENAY
B2: ROBO2 (protein, UniProt Q9HCK4 22-1378, looked up)
Roundabout homolog 2: SRLRQEDFPPRIVEHPSDVIVSKGEPTTLNCKAEGRPTPTIEWYKDGERVETDKDDPRSHRMLLPSGSLFFLRIVHGRRSKPDEGSYVCVARNYLGEAVSRNASLEVALLRDDFRQNPTDVVVAAGEPAILECQPPRGHPEPTIYWKKDKVRIDDKEERISIRGGKLMISNTRKSDAGMYTCVGTNMVGERDSDPAELTVFERPTFLRRPINQVVLEEEAVEFRCQVQGDPQPTVRWKKDDADLPRGRYDIKDDYTLRIKKTMSTDEGTYMCIAENRVGKMEASATLTVRAPPQFVVRPRDQIVAQGRTVTFPCETKGNPQPAVFWQKEGSQNLLFPNQPQQPNSRCSVSPTGDLTITNIQRSDAGYYICQALTVAGSILAKAQLEVTDVLTDRPPPIILQGPANQTLAVDGTALLKCKATGDPLPVISWLKEGFTFPGRDPRATIQEQGTLQIKNLRISDTGTYTCVATSSSGETSWSAVLDVTESGATISKNYDLSDLPGPPSKPQVTDVTKNSVTLSWQPGTPGTLPASAYIIEAFSQSVSNSWQTVANHVKTTLYTVRGLRPNTIYLFMVRAINPQGLSDPSPMSDPVRTQDISPPAQGVDHRQVQKELGDVLVRLHNPVVLTPTTVQVTWTVDRQPQFIQGYRVMYRQTSGLQATSSWQNLDAKVPTERSAVLVNLKKGVTYEIKVRPYFNEFQGMDSESKTVRTTEEAPSAPPQSVTVLTVGSYNSTSISVSWDPPPPDHQNGIIQEYKIWCLGNETRFHINKTVDAAIRSVIIGGLFPGIQYRVEVAASTSAGVGVKSEPQPIIIGRRNEVVITENNNSITEQITDVVKQPAFIAGIGGACWVILMGFSIWLYWRRKKRKGLSNYAVTFQRGDGGLMSNGSRPGLLNAGDPSYPWLADSWPATSLPVNNSNSGPNEIGNFGRGDVLPPVPGQGDKTATMLSDGAIYSSIDFTTKTSYNSSSQITQATPYATTQILHSNSIHELAVDLPDPQWKSSIQQKTDLMGFGYSLPDQNKGNNGGKGGKKKKNKNSSKPQKNNGSTWANVPLPPPPVQPLPGTELEHYAVEQQENGYDSDSWCPPLPVQTYLHQGLEDELEEDDDRVPTPPVRGVASSPAISFGQQSTATLTPSPREEMQPMLQAHLDELTRAYQFDIAKQTWHIQSNNQPPQPPVPPLGYVSGALISDLETDVADDDADDEEEALEIPRPLRALDQTPGSSMDNLDSSVTGKAFTSSQRPRPTSPFSTDSNTSAALSQSQRPRPTKKHKGGRMDQQPALPHRREGMTDEEALVPYSKPSFPSPGGHSSSGTASSKGSTGPRKTEVLRAGHQRNASDLLDIGYMGSNSQGQFTGEL
B3: DDX58 (protein, UniProt O95786 1-925, looked up)
Antiviral innate immune …: MTTEQRRSLQAFQDYIRKTLDPTYILSYMAPWFREEEVQYIQAEKNNKGPMEAATLFLKFLLELQEEGWFRGFLDALDHAGYSGLYEAIESWDFKKIEKLEEYRLLLKRLQPEFKTRIIPTDIISDLSECLINQECEEILQICSTKGMMAGAEKLVECLLRSDKENWPKTLKLALEKERNKFSELWIVEKGIKDVETEDLEDKMETSDIQIFYQEDPECQNLSENSCPPSEVSDTNLYSPFKPRNYQLELALPAMKGKNTIICAPTGCGKTFVSLLICEHHLKKFPQGQKGKVVFFANQIPVYEQQKSVFSKYFERHGYRVTGISGATAENVPVEQIVENNDIIILTPQILVNNLKKGTIPSLSIFTLMIFDECHNTSKQHPYNMIMFNYLDQKLGGSSGPLPQVIGLTASVGVGDAKNTDEALDYICKLCASLDASVIATVKHNLEELEQVVYKPQKFFRKVESRISDKFKYIIAQLMRDTESLAKRICKDLENLSQIQNREFGTQKYEQWIVTVQKACMVFQMPDKDEESRICKALFLYTSHLRKYNDALIISEHARMKDALDYLKDFFSNVRAAGFDEIEQDLTQRFEEKLQELESVSRDPSNENPKLEDLCFILQEEYHLNPETITILFVKTRALVDALKNWIEGNPKLSFLKPGILTGRGKTNQNTGMTLPAQKCILDAFKASGDHNILIATSVADEGIDIAQCNLVILYEYVGNVIKMIQTRGRGRARGSKCFLLTSNAGVIEKEQINMYKEKMMNDSILRLQTWDEAVFREKILHIQTHEKFIRDSQEKPKPVPDKENKKLLCRKCKALACYTADVRVIEECHYTVLGDAFKECFVSRPHPKPKQFSSFEKRAKIFCARQNCSHDWGIHVKYKTFEIPVIKIESFVVEDIATGVQTLYSKWKDFHFEKIPFDPAEMSK
B4: CA12 (protein, UniProt O43570 25-354, looked up)
Carbonic anhydrase 12: APVNGSKWTYFGPDGENSWSKKYPSCGGLLQSPIDLHSDILQYDASLTPLEFQGYNLSANKQFLLTNNGHSVKLNLPSDMHIQGLQSRYSATQLHLHWGNPNDPHGSEHTVSGQHFAAELHIVHYNSDLYPDASTASNKSEGLAVLAVLIEMGSFNPSYDKIFSHLQHVKYKGQEAFVPGFNIEELLPERTAEYYRYRGSLTTPPCNPTVLWTVFRNPVQISQEQLLALETALYCTHMDDPSPREMINNFRQVQKFDERLVYTSFSQVQVCTAAGLSLGIILSLALAGILGICIVVVVSIWLFRRKSIKKGDNKGVIYKPATKMETEAHA
B5: TRAF2 (protein, UniProt Q12933 2-501, looked up)
TNF receptor-associated …: AAASVTPPGSLELLQPGFSKTLLGTKLEAKYLCSACRNVLRRPFQAQCGHRYCSFCLASILSSGPQNCAACVHEGIYEEGISILESSSAFPDNAARREVESLPAVCPSDGCTWKGTLKEYESCHEGRCPLMLTECPACKGLVRLGEKERHLEHECPERSLSCRHCRAPCCGADVKAHHEVCPKFPLTCDGCGKKKIPREKFQDHVKTCGKCRVPCRFHAIGCLETVEGEKQQEHEVQWLREHLAMLLSSVLEAKPLLGDQSHAGSELLQRCESLEKKTATFENIVCVLNREVERVAMTAEACSRQHRLDQDKIEALSSKVQQLERSIGLKDLAMADLEQKVLEMEASTYDGVFIWKISDFARKRQEAVAGRIPAIFSPAFYTSRYGYKMCLRIYLNGDGTGRGTHLSLFFVVMKGPNDALLRWPFNQKVTLMLLDQNNREHVIDAFRPDVTSSSFQRPVNDMNIASGCPLFCPVSKMEAKNSYVRDDAIFIKAIVDLTGL
B6: DDC (protein, UniProt P20711 1-480, looked up)
Aromatic-L-amino-acid …: MNASEFRRRGKEMVDYMANYMEGIEGRQVYPDVEPGYLRPLIPAAAPQEPDTFEDIINDVEKIIMPGVTHWHSPYFFAYFPTASSYPAMLADMLCGAIGCIGFSWAASPACTELETVMMDWLGKMLELPKAFLNEKAGEGGGVIQGSASEATLVALLAARTKVIHRLQAASPELTQAAIMEKLVAYSSDQAHSSVERAGLIGGVKLKAIPSDGNFAMRASALQEALERDKAAGLIPFFMVATLGTTTCCSFDNLLEVGPICNKEDIWLHVDAAYAGSAFICPEFRHLLNGVEFADSFNFNPHKWLLVNFDCSAMWVKKRTDLTGAFRLDPTYLKHSHQDSGLITDYRHWQIPLGRRFRSLKMWFVFRMYGVKGLQAYIRKHVQLSHEFESLVRQDPRFEICVEVILGLVCFRLKGSNKVNEALLQRINSAKKIHLVPCHLRDKFVLRFAICSRTVESAHVQRAWEHIKELAADVLRAERE
B7: SMAD1 (protein, UniProt Q15797 1-465, looked up)
Mothers against …: MNVTSLFSFTSPAVKRLLGWKQGDEEEKWAEKAVDALVKKLKKKKGAMEELEKALSCPGQPSNCVTIPRSLDGRLQVSHRKGLPHVIYCRVWRWPDLQSHHELKPLECCEFPFGSKQKEVCINPYHYKRVESPVLPPVLVPRHSEYNPQHSLLAQFRNLGQNEPHMPLNATFPDSFQQPNSHPFPHSPNSSYPNSPGSSSSTYPHSPTSSDPGSPFQMPADTPPPAYLPPEDPMTQDGSQPMDTNMMAPPLPSEINRGDVQAVAYEEPKHWCSIVYYELNNRVGEAFHASSTSVLVDGFTDPSNNKNRFCLGLLSNVNRNSTIENTRRHIGKGVHLYYVGGEVYAECLSDSSIFVQSRNCNYHHGFHPTTVCKIPSGCSLKIFNNQEFAQLLAQSVNHGFETVYELTKMCTIRMSFVKGWGAEYHRQDVTSTPCWIEIHLHGPLQWLDKVLTQMGSPHNPISSVS
B8: EDIL3 (protein, UniProt O43854 24-480, looked up)
EGF-like repeat and discoidin …: DICDPNPCENGGICLPGLADGSFSCECPDGFTDPNCSSVVEVASDEEEPTSAGPCTPNPCHNGGTCEISEAYRGDTFIGYVCKCPRGFNGIHCQHNINECEVEPCKNGGICTDLVANYSCECPGEFMGRNCQYKCSGPLGIEGGIISNQQITASSTHRALFGLQKWYPYYARLNKKGLINAWTAAENDRWPWIQINLQRKMRVTGVITQGAKRIGSPEYIKSYKIAYSNDGKTWAMYKVKGTNEDMVFRGNIDNNTPYANSFTPPIKAQYVRLYPQVCRRHCTLRMELLGCELSGCSEPLGMKSGHIQDYQITASSIFRTLNMDMFTWEPRKARLDKQGKVNAWTSGHNDQSQWLQVDLLVPTKVTGIITQGAKDFGHVQFVGSYKLAYSNDGEHWTVYQDEKQRKDKVFQGNFDNDTHRKNVIDPPIYARHIRILPWSWYGRITLRSELLGCTEEE
B9: LAIR-2 (protein, UniProt Q6ISS4 22-152, looked up)
Leukocyte-associated …: QEGALPRPSISAEPGTVISPGSHVTFMCRGPVGVQTFRLEREDRAKYKDSYNVFRLGPSESEARFHIDSVSEGNAGLYRCLYYKPPGWSEHSDFLELLVKESSGGPDSPDTEPGSSAGTVPGTEASGFDAP
B10: XPNPEP2 (protein, UniProt O43895 22-649, looked up)
Xaa-Pro aminopeptidase 2: HTKPVDLGGQDVRNCSTNPPYLPVTVVNTTMSLTALRQQMQTQNLSAYIIPGTDAHMNEYIGQHDERRAWITGFTGSAGTAVVTMKKAAVWTDSRYWTQAERQMDCNWELHKEVGTTPIVTWLLTEIPAGGRVGFDPFLLSIDTWESYDLALQGSNRQLVSITTNLVDLVWGSERPPVPNQPIYALQEAFTGSTWQEKVSGVRSQMQKHQKVPTAVLLSALEETAWLFNLRASDIPYNPFFYSYTLLTDSSIRLFANKSRFSSETLSYLNSSCTGPMCVQIEDYSQVRDSIQAYSLGDVRIWIGTSYTMYGIYEMIPKEKLVTDTYSPVMMTKAVKNSKEQALLKASHVRDAVAVIRYLVWLEKNVPKGTVDEFSGAEIVDKFRGEEQFSSGPSFETISASGLNAALAHYSPTKELNRKLSSDEMYLLDSGGQYWDGTTDITRTVHWGTPSAFQKEAYTRVLIGNIDLSRLIFPAATSGRMVEAFARRALWDAGLNYGHGTGHGIGNFLCVHEWPVGFQSNNIAMAKGMFTSIEPGYYKDGEFGIRLEDVALVVEAKTKYPGSYLTFEVVSFVPYDRNLIDVSLLSPEHLQYLNRYYQTIREKVGPELQRRQLLEEFEWLQQHTEPLA

Tested on: plasma proteins
Experiment: Plasma proteins modulated between baseline and day 28 in responders (CR, VGPR, PR; n = 19), Example 6 (Table 13)
Assay type: in vivo, human
Settings: plasma protein (OLINK NPX); responders (CR, VGPR, PR; n = 19); itacitinib 200 mg or 300 mg QD with corticosteroids; day 28 vs baseline
Outline: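 Plasma at baseline/screening and day 28 profiled for >1000 proteins by OLINK proximity extension assay, reported as NPX (log2). Steroid-naive and steroid-refractory patients pooled. Paired and unpaired t tests, ANOVA and Pearson correlation applied; significance at P<0.05.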

| Molecule | Fold Change, Decreased Expression from Baseline to Day 28 | Fold Change, Increased Expression from Baseline to Day 28 |
| --- | --- | --- |
| B1 | −1.3214 |  |
| B2 |  | 1.249 |
| B3 | −1.6381 |  |
| B4 |  | 1.247 |
| B5 | −1.4472 |  |
| B6 |  | 1.5485 |
| B7 | −1.3807 |  |
| B8 |  | 1.12 |
| B9 | −1.8117 |  |
| B10 |  | 1.285 |
